The source of these data is the DeepSol protein solubility set.

A short description of the data set: soluble on expression in E. coli; label from the status in PepcDB or PDB records.
As to “MSESFDCAKCNESLYGRKYIQTDSGPYCVPCYDNTFANTCAECQQLIGHDSRELFYEDRHFHEGCFRCCRCQRSLADEPFTCQDSELLCNDCYCSAFSSQCSACGETVMPGSRKLEYGGQTWHEHCFLCSGCEQPLGSRSFVPDKGAHYCVPCYENKFAPRCARCSKTLTQGGVTYRDQPWHRECLVCTGCQTPLAGQQFTSRDEDPYCVACFGELFAPKCSSCKRPIVGLGGGKYVSFEDRHWHHNCFSCARCSTSLVGQGFVPDGDQVLCQGCSQAGP”, the “soluble on expression in E. coli” value was “soluble”.

“MPHSCSGNYNSCAYIYGVHICKVLLILRAQNVYRNGGFMGEQLIISISREYGSGGHEIARKLADRLELAFYDRCMLDEIAEQMNADVSDFHKYDEKPGNRLLSRRVGNHTNSYEEIIAQFQFDYIRKKAESGESFVVVGRCSENVLKDYDCLISVFVTGDKEHKIQRVMEHFDLSESEAYTKMRRHDRTRKQYHNRYSEGKWGDATYYDMCINSSPLGIEKTVNVLENYVKERTGNQEL”: the “soluble on expression in E. coli” value was “not soluble”.

Take “EDLPTARVGVDYTSDSQVGGTLDLGRRFGDNNQFGARVNLVHREGEGAIDNDKRRTTLASLGLDYRGDRFRSSLDFGYQKKTFHGGTMGVNISGVDFIPALPDNSKNYSQKWGYSDIESEFGMAKAEYDLTDSWTVYSALGGQHSHEIGTYSAPKLLNKNGDATVGRLDTNRIIDAISGMGGVRGDFNTGAISHKVNLGYAAQVHTDATAWRMSARNPTTNIYDNHDVAMPDNAYFGGNYHDPLITSRSRTQGWLLSDTLGFFNDKVLFTAAARHQKVVVRNYSNATGLEDTSSRYTQSRWMPTFGLVYKPWEQLSLYANHTEALQPGSVAPTTAANAGQSTGIAHSKQDEVGVKIDYGTIGGSLALFEIKKPNAISDTAGNYGLDGEQRNRGVEMNVFGEPMLGLRLNASTVWLDAKQTKTAEGATDGKDAIGVANFYAVLGAEYDIKPVEGLTATARVNHSGSQYADAANTKKLDSYTTLDLGLRYRMRLNADQNEMIWRVGVTNVTNEKYWSGIDDTGTYLFEGDPRTVRVSMSYDF”: the “soluble on expression in E. coli” value is reported as “not soluble”.

With “SLIKFLSALILLLVTTAAQAERIRDLTSVQGVRQNSLIGYGLVVGLDGTGDQTTQTPFTTQTLNNMLSQLGITVPTGTNMQLKNVAAVMVTASLPPFGRQGQTIDVVVSSMGNAKSLRGGTLLMTPLKGVDSQVYALAQGNILVGGAGASAGGSSVQVNQLNGGRITNGAVIERELPSQFGVGNTLNLQLNDEDFSMAQQIADTINRVRGYGSATALDARTIQVRVPSGNSSQVRFLADIQNMQVNVTPQDAKVVINSRTGSVVMNREVTLDSCAIAQGNLSVTVNRQANVSQPDTPFGGGQTVVTPQTQIDLRQSGGSLQSVRSSASLNNVVRALNALGATPMDLMSILQSMQSAGCLRAKLEII”, the “soluble on expression in E. coli” value is reported as “not soluble”. For “MKRVLIFADIFPPAFAPRAAYLTKYLPRFGWEPFVITEKMPTPASQSHGDVFGGFCSDIPVTAIDLSSASFLSQAIRSARLFGELFWEQKEERFYKEAAKAFPSVKFDAVLCLTYRKFPLATACRYAQAHRLPWVADCRDVIEQYSNYDFLPRGKRLPSLLMKWLRHRYISLRNHYLHKADRVVSVSPWHCNLLAEVNPRTELIYNGYDPELFSRGSLPCGKFILSYTGRLLTPEMHDPTLLFEALASEALQEVRKERRIELHWYVDEYSRSILQPFIRQYALKDMCRFFPMVPAVQVPEILRHSSVLLQLGNTEKPGGPHGIVSTKLFESLAMEKPILMVRSDEAIVADIISEAEAGLAAQTTEEVATFLSDQYTRWKAEGDTSLRNPNRNFISTFSREEEAKQYARLLESIVAN”, the “soluble on expression in E. coli” value is “not soluble”. On to “SKAWLHQYSVVGRKIPTQEEPEPPIYRLKIFAPNVVNAKSRFWYFLRKLKRVKKSSGEILNISEIFEKKSTQVKNYGIWIRYKSRSDTINMYREYRDVTVNGAVEQMYKDMSGRHRARWSSIWVLKAMPVAAKDCRRSKVTQFHDSKIKFALPHMRPRAPLKKYNTPFKAKRPTTIVQ”, for which the “soluble on expression in E. coli” value was “soluble”. Then “MPSSIYRYETIQVAGRGAFGLVVIARDTLTSKRVAIKRIMVPNVSKVSLAREISCLRNLHHRNILKLLDCFPSADLMSIVTEEVPYTLGDIIKDKTRPKTEQFNRWYYTQILSGIAYLHSKEIMHRDIKPENILVTSRNVVKIADFGQACFYMPKDPNQEYDVNVATRWYRAPELLFGSKKYKPDVDIWAIGCILAELVRGKPIFPGRSELEQISIIFGVLGTPNEDNWPNWRTMPDANKLLFEPKEPRNNWTEILLCKEISNNFTEFLGSHLQFFKRLKASELLKEPWIKQGLPLVEPNYRISKKSTRRNQRDALPPLHVFL”, with “not soluble”.
